Sequences and labels used below:
B1: biotin-labeled ALG-2 [modified: biotin-labeled; biotin-labeled] [human] / GST-SGG-linker-8xHis fused with the eight-residue Sec31A peptide (NPPPPGFI), wild type [human] (parent complex)
chain 1: MAAYSYRPGPGAGPGPAAGAALPDQSFLWNVFQRVDKDRSGVISDTELQQALSNGTWTPFNPVTVRSIISMFDRENKAGVNFSEFTGVWKYITDWQNVFRTYDRDNSGMIDKNELKQALSGFGYRLSDQFHDILIRKFDRQGRGQIAFDDFIQGCIVLQRLTDIFRRYDTDQDGWIQVSYEQYLSMVFSIV
chain 2: NPPPPGFI

In the assay the parent is B1. Description: far-Western blot (FW), signal intensity measured with ImageJ; n = 4; read off a plot.
In the case of chain 2 I8G, the percent of parent is ~9 % of WT.
As for chain 2 N1P, the figure is ~100 % of WT.
Take chain 2 P5L: the percent of parent is ~55 % of WT.
The figure for chain 2 P4A is ~42 % of WT.

The values above are taken from publication PMC4346919 (2015).
